Reference: US20180155451A1 (published 2018)

B1: GpH7-B3 variant N325_06M/GpL16-k0 (antibody, human IgG1, kappa)
heavy: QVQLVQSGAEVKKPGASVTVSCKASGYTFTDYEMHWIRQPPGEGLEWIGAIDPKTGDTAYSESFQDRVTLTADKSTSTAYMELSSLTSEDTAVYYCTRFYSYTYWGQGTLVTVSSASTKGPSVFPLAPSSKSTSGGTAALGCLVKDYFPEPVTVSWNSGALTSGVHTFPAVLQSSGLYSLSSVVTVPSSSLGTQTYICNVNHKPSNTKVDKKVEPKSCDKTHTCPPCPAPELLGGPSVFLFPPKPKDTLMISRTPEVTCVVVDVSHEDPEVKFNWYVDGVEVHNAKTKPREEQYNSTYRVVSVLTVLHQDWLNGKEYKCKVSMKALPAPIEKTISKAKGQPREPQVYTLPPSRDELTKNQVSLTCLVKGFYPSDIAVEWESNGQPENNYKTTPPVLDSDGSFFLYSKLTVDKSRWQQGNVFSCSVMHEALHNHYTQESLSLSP
light: DIVMTQSPLSLPVTPGEPASISCQASESLVHSNRNTYLHWYLQKPGQSPQLLIYKVSNRFSGVPDRFSGSGSGTDFTLKISRVEAEDVGVYYCSQNTHVPPTFGQGTKVEIERTVAAPSVFIFPPSDEQLKSGTASVVCLLNNFYPREAKVQWKVDNALQSGNSQESVTEQDSKDSTYSLSSTLTLSKADYEKHKVYACEVTHQGLSSPVTKSFNRGEC
notes: also called Ho Ab N325_06M
B2: GpH7-B3 variant G236_14T/GpL16-k0 (antibody, human IgG1, kappa)
heavy: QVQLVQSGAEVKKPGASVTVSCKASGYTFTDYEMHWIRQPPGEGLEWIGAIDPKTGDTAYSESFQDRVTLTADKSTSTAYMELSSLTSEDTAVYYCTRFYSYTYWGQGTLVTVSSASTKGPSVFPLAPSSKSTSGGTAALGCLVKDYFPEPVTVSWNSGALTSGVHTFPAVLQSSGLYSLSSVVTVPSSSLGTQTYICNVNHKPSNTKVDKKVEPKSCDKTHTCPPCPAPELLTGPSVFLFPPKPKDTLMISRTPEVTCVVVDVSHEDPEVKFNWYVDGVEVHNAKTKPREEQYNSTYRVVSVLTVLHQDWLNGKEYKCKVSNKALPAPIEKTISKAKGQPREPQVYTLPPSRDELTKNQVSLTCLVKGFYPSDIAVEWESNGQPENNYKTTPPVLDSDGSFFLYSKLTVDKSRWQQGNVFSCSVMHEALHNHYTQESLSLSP
light: DIVMTQSPLSLPVTPGEPASISCQASESLVHSNRNTYLHWYLQKPGQSPQLLIYKVSNRFSGVPDRFSGSGSGTDFTLKISRVEAEDVGVYYCSQNTHVPPTFGQGTKVEIERTVAAPSVFIFPPSDEQLKSGTASVVCLLNNFYPREAKVQWKVDNALQSGNSQESVTEQDSKDSTYSLSSTLTLSKADYEKHKVYACEVTHQGLSSPVTKSFNRGEC
notes: also called Ho Ab G236_14T
B3: GpH7-B3 variant E333_07I/GpL16-k0 (antibody, human IgG1, kappa)
heavy: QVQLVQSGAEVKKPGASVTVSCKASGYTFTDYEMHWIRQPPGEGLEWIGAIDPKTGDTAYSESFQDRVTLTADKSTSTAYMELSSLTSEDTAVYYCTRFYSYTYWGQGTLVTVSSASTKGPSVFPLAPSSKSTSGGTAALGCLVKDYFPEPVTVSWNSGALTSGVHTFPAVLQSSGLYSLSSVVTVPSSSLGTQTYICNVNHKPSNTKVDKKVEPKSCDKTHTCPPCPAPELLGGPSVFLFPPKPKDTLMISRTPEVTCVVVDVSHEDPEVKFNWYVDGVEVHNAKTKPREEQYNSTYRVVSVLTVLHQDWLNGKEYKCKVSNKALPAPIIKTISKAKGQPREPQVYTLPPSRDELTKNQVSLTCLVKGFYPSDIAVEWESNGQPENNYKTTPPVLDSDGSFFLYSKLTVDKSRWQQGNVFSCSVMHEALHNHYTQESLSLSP
light: DIVMTQSPLSLPVTPGEPASISCQASESLVHSNRNTYLHWYLQKPGQSPQLLIYKVSNRFSGVPDRFSGSGSGTDFTLKISRVEAEDVGVYYCSQNTHVPPTFGQGTKVEIERTVAAPSVFIFPPSDEQLKSGTASVVCLLNNFYPREAKVQWKVDNALQSGNSQESVTEQDSKDSTYSLSSTLTLSKADYEKHKVYACEVTHQGLSSPVTKSFNRGEC
notes: also called Ho Ab E333_07I
B4: GpH7-B3 variant E333_04F/GpL16-k0 (antibody, human IgG1, kappa)
heavy: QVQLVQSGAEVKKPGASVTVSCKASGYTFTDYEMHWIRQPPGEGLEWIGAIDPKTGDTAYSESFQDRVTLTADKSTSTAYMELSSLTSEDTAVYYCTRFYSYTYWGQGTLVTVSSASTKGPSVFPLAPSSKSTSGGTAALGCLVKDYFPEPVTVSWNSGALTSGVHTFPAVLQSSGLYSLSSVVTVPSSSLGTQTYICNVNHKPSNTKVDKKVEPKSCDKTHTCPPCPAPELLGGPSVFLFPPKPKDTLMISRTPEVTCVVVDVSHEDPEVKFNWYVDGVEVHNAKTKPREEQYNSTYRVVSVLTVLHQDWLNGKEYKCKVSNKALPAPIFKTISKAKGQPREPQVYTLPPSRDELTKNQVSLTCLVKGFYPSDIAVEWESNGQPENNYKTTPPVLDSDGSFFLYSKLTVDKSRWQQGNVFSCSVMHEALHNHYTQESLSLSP
light: DIVMTQSPLSLPVTPGEPASISCQASESLVHSNRNTYLHWYLQKPGQSPQLLIYKVSNRFSGVPDRFSGSGSGTDFTLKISRVEAEDVGVYYCSQNTHVPPTFGQGTKVEIERTVAAPSVFIFPPSDEQLKSGTASVVCLLNNFYPREAKVQWKVDNALQSGNSQESVTEQDSKDSTYSLSSTLTLSKADYEKHKVYACEVTHQGLSSPVTKSFNRGEC
notes: also called Ho Ab E333_04F
B5: GpH7-B3 variant A330_01G/GpL16-k0 (antibody, human IgG1, kappa)
heavy: not shown
light: DIVMTQSPLSLPVTPGEPASISCQASESLVHSNRNTYLHWYLQKPGQSPQLLIYKVSNRFSGVPDRFSGSGSGTDFTLKISRVEAEDVGVYYCSQNTHVPPTFGQGTKVEIERTVAAPSVFIFPPSDEQLKSGTASVVCLLNNFYPREAKVQWKVDNALQSGNSQESVTEQDSKDSTYSLSSTLTLSKADYEKHKVYACEVTHQGLSSPVTKSFNRGEC
notes: also called Ho Ab A330_01G
B6: GpH7-B3 variant A330_12R/GpL16-k0 (antibody, human IgG1, kappa)
heavy: not shown
light: DIVMTQSPLSLPVTPGEPASISCQASESLVHSNRNTYLHWYLQKPGQSPQLLIYKVSNRFSGVPDRFSGSGSGTDFTLKISRVEAEDVGVYYCSQNTHVPPTFGQGTKVEIERTVAAPSVFIFPPSDEQLKSGTASVVCLLNNFYPREAKVQWKVDNALQSGNSQESVTEQDSKDSTYSLSSTLTLSKADYEKHKVYACEVTHQGLSSPVTKSFNRGEC
notes: also called Ho Ab A330_12R
B7: GpH7-B3 variant E333_15Y/GpL16-k0 (antibody, human IgG1, kappa)
heavy: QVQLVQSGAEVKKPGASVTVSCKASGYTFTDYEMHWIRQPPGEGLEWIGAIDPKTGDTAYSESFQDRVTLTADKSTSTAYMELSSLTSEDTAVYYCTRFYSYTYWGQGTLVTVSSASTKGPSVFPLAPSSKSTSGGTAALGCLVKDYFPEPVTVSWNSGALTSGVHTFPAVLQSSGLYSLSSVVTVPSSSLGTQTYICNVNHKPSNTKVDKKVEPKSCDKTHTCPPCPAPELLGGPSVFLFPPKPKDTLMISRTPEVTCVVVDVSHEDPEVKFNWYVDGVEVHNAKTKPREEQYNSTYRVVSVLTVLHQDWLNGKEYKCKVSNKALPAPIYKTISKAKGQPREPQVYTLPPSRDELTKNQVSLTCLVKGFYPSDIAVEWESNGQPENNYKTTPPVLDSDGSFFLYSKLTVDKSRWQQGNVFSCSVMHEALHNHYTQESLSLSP
light: DIVMTQSPLSLPVTPGEPASISCQASESLVHSNRNTYLHWYLQKPGQSPQLLIYKVSNRFSGVPDRFSGSGSGTDFTLKISRVEAEDVGVYYCSQNTHVPPTFGQGTKVEIERTVAAPSVFIFPPSDEQLKSGTASVVCLLNNFYPREAKVQWKVDNALQSGNSQESVTEQDSKDSTYSLSSTLTLSKADYEKHKVYACEVTHQGLSSPVTKSFNRGEC
notes: also called Ho Ab E333_15Y
B8: GpH7-B3 variant A327_09D/GpL16-k0 (antibody, human IgG1, kappa)
heavy: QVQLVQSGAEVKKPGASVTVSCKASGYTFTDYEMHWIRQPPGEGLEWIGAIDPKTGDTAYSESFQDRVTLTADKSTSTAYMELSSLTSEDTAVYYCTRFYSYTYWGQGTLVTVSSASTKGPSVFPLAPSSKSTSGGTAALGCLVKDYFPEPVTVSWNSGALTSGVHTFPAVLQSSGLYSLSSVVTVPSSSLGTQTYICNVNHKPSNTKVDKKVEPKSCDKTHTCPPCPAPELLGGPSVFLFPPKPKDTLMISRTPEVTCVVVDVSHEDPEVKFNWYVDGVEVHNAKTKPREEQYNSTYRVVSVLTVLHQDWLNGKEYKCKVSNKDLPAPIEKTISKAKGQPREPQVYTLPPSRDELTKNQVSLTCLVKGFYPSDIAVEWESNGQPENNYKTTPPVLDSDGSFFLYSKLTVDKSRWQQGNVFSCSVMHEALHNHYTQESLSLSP
light: DIVMTQSPLSLPVTPGEPASISCQASESLVHSNRNTYLHWYLQKPGQSPQLLIYKVSNRFSGVPDRFSGSGSGTDFTLKISRVEAEDVGVYYCSQNTHVPPTFGQGTKVEIERTVAAPSVFIFPPSDEQLKSGTASVVCLLNNFYPREAKVQWKVDNALQSGNSQESVTEQDSKDSTYSLSSTLTLSKADYEKHKVYACEVTHQGLSSPVTKSFNRGEC
notes: also called Ho Ab A327_09D
B9: GpH7-B3 variant E333_08L/GpL16-k0 (antibody, human IgG1, kappa)
heavy: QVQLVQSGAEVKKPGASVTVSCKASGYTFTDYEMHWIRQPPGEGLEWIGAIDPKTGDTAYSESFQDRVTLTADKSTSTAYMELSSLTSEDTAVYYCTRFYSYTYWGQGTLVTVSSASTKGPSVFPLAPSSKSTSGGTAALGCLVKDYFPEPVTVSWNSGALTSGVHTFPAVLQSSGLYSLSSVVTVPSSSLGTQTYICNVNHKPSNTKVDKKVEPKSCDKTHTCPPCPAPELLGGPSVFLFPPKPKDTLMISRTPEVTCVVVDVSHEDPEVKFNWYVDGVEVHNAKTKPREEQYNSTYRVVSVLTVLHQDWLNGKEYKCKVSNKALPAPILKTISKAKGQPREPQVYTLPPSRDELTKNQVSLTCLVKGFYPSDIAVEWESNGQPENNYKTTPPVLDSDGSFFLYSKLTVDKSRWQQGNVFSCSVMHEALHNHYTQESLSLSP
light: DIVMTQSPLSLPVTPGEPASISCQASESLVHSNRNTYLHWYLQKPGQSPQLLIYKVSNRFSGVPDRFSGSGSGTDFTLKISRVEAEDVGVYYCSQNTHVPPTFGQGTKVEIERTVAAPSVFIFPPSDEQLKSGTASVVCLLNNFYPREAKVQWKVDNALQSGNSQESVTEQDSKDSTYSLSSTLTLSKADYEKHKVYACEVTHQGLSSPVTKSFNRGEC
notes: also called Ho Ab E333_08L
B10: GpH7-B3 variant A330_19Q/GpL16-k0 (antibody, human IgG1, kappa)
heavy: not shown
light: DIVMTQSPLSLPVTPGEPASISCQASESLVHSNRNTYLHWYLQKPGQSPQLLIYKVSNRFSGVPDRFSGSGSGTDFTLKISRVEAEDVGVYYCSQNTHVPPTFGQGTKVEIERTVAAPSVFIFPPSDEQLKSGTASVVCLLNNFYPREAKVQWKVDNALQSGNSQESVTEQDSKDSTYSLSSTLTLSKADYEKHKVYACEVTHQGLSSPVTKSFNRGEC
notes: also called Ho Ab A330_19Q
B11: GpH7-B3 variant E333_05P/GpL16-k0 (antibody, human IgG1, kappa)
heavy: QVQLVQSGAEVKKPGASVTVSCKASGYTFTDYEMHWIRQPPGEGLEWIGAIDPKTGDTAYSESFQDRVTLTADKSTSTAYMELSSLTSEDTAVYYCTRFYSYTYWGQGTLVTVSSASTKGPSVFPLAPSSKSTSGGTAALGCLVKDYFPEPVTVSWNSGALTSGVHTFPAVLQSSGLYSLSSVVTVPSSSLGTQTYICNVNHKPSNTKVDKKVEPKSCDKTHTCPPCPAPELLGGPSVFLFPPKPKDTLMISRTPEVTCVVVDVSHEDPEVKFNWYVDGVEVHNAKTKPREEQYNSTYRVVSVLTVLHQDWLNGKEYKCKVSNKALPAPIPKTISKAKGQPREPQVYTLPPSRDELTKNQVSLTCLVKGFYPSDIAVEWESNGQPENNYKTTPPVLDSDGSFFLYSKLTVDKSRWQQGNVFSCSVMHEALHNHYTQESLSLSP
light: DIVMTQSPLSLPVTPGEPASISCQASESLVHSNRNTYLHWYLQKPGQSPQLLIYKVSNRFSGVPDRFSGSGSGTDFTLKISRVEAEDVGVYYCSQNTHVPPTFGQGTKVEIERTVAAPSVFIFPPSDEQLKSGTASVVCLLNNFYPREAKVQWKVDNALQSGNSQESVTEQDSKDSTYSLSSTLTLSKADYEKHKVYACEVTHQGLSSPVTKSFNRGEC
notes: also called Ho Ab E333_05P
B12: GpH7-B3 variant E269_09D/GpL16-k0 (antibody, human IgG1, kappa)
heavy: not shown
light: DIVMTQSPLSLPVTPGEPASISCQASESLVHSNRNTYLHWYLQKPGQSPQLLIYKVSNRFSGVPDRFSGSGSGTDFTLKISRVEAEDVGVYYCSQNTHVPPTFGQGTKVEIERTVAAPSVFIFPPSDEQLKSGTASVVCLLNNFYPREAKVQWKVDNALQSGNSQESVTEQDSKDSTYSLSSTLTLSKADYEKHKVYACEVTHQGLSSPVTKSFNRGEC
notes: also called Ho Ab E269_09D
B13: GpH7-B3 variant E333_09D/GpL16-k0 (antibody, human IgG1, kappa)
heavy: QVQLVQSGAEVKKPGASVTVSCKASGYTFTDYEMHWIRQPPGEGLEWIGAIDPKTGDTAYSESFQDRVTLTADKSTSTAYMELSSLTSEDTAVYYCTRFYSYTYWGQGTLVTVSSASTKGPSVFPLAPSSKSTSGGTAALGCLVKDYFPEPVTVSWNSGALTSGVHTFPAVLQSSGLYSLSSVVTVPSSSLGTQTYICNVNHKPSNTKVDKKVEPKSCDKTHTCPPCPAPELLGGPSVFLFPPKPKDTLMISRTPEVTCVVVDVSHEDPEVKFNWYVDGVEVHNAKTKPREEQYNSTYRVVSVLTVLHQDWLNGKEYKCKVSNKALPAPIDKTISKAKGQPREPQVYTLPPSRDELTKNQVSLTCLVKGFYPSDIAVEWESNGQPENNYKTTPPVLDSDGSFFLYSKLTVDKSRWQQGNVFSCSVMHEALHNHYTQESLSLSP
light: DIVMTQSPLSLPVTPGEPASISCQASESLVHSNRNTYLHWYLQKPGQSPQLLIYKVSNRFSGVPDRFSGSGSGTDFTLKISRVEAEDVGVYYCSQNTHVPPTFGQGTKVEIERTVAAPSVFIFPPSDEQLKSGTASVVCLLNNFYPREAKVQWKVDNALQSGNSQESVTEQDSKDSTYSLSSTLTLSKADYEKHKVYACEVTHQGLSSPVTKSFNRGEC
notes: also called Ho Ab E333_09D
B14: GpH7-B3 variant A327_10E/GpL16-k0 (antibody, human IgG1, kappa)
heavy: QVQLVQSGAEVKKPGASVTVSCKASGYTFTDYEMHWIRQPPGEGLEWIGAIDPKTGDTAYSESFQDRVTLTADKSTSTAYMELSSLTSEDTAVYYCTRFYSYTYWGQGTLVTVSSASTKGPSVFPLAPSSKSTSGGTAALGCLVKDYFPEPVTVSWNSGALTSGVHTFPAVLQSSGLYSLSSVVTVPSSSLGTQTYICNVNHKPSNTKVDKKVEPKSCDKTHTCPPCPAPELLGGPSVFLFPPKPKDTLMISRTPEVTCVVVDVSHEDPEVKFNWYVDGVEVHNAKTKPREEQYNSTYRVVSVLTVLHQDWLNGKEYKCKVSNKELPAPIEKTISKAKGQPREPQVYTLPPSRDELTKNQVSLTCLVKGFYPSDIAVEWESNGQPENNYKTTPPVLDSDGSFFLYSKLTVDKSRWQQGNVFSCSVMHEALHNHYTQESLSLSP
light: DIVMTQSPLSLPVTPGEPASISCQASESLVHSNRNTYLHWYLQKPGQSPQLLIYKVSNRFSGVPDRFSGSGSGTDFTLKISRVEAEDVGVYYCSQNTHVPPTFGQGTKVEIERTVAAPSVFIFPPSDEQLKSGTASVVCLLNNFYPREAKVQWKVDNALQSGNSQESVTEQDSKDSTYSLSSTLTLSKADYEKHKVYACEVTHQGLSSPVTKSFNRGEC
notes: also called Ho Ab A327_10E
B15: GpH7-B3 variant A330_11K/GpL16-k0 (antibody, human IgG1, kappa)
heavy: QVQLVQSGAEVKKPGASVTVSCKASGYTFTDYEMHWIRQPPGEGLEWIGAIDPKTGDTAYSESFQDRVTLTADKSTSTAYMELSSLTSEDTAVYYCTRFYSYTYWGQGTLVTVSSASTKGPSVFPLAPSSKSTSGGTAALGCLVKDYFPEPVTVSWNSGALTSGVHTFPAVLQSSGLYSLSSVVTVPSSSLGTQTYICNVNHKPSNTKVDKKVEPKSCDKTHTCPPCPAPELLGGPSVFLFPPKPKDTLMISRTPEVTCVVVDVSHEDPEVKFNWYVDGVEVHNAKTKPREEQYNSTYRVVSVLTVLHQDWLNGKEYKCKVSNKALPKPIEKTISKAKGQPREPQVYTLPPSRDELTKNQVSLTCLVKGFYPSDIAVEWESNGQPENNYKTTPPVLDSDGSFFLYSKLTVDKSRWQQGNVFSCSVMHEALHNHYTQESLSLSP
light: DIVMTQSPLSLPVTPGEPASISCQASESLVHSNRNTYLHWYLQKPGQSPQLLIYKVSNRFSGVPDRFSGSGSGTDFTLKISRVEAEDVGVYYCSQNTHVPPTFGQGTKVEIERTVAAPSVFIFPPSDEQLKSGTASVVCLLNNFYPREAKVQWKVDNALQSGNSQESVTEQDSKDSTYSLSSTLTLSKADYEKHKVYACEVTHQGLSSPVTKSFNRGEC
notes: also called Ho Ab A330_11K
B16: GpH7-B3 variant A330_05P/GpL16-k0 (antibody, human IgG1, kappa)
heavy: not shown
light: DIVMTQSPLSLPVTPGEPASISCQASESLVHSNRNTYLHWYLQKPGQSPQLLIYKVSNRFSGVPDRFSGSGSGTDFTLKISRVEAEDVGVYYCSQNTHVPPTFGQGTKVEIERTVAAPSVFIFPPSDEQLKSGTASVVCLLNNFYPREAKVQWKVDNALQSGNSQESVTEQDSKDSTYSLSSTLTLSKADYEKHKVYACEVTHQGLSSPVTKSFNRGEC
notes: also called Ho Ab A330_05P
B17: GpH7-B3 variant A330_15Y/GpL16-k0 (antibody, human IgG1, kappa)
heavy: not shown
light: DIVMTQSPLSLPVTPGEPASISCQASESLVHSNRNTYLHWYLQKPGQSPQLLIYKVSNRFSGVPDRFSGSGSGTDFTLKISRVEAEDVGVYYCSQNTHVPPTFGQGTKVEIERTVAAPSVFIFPPSDEQLKSGTASVVCLLNNFYPREAKVQWKVDNALQSGNSQESVTEQDSKDSTYSLSSTLTLSKADYEKHKVYACEVTHQGLSSPVTKSFNRGEC
notes: also called Ho Ab A330_15Y
B18: GpH7-A5/GpH7-B3 variant S239_18N/GpL16-k0 (antibody, human IgG1, kappa)
heavy 1: not shown
heavy 2: not shown
light: DIVMTQSPLSLPVTPGEPASISCQASESLVHSNRNTYLHWYLQKPGQSPQLLIYKVSNRFSGVPDRFSGSGSGTDFTLKISRVEAEDVGVYYCSQNTHVPPTFGQGTKVEIERTVAAPSVFIFPPSDEQLKSGTASVVCLLNNFYPREAKVQWKVDNALQSGNSQESVTEQDSKDSTYSLSSTLTLSKADYEKHKVYACEVTHQGLSSPVTKSFNRGEC
notes: also called He Ab S239_18N
B19: GpH7-A5/GpH7-B3 variant S239_10E/GpL16-k0 (antibody, human IgG1, kappa)
heavy 1: not shown
heavy 2: not shown
light: DIVMTQSPLSLPVTPGEPASISCQASESLVHSNRNTYLHWYLQKPGQSPQLLIYKVSNRFSGVPDRFSGSGSGTDFTLKISRVEAEDVGVYYCSQNTHVPPTFGQGTKVEIERTVAAPSVFIFPPSDEQLKSGTASVVCLLNNFYPREAKVQWKVDNALQSGNSQESVTEQDSKDSTYSLSSTLTLSKADYEKHKVYACEVTHQGLSSPVTKSFNRGEC
notes: also called He Ab S239_10E
B20: GpH7-A5/GpH7-B3 variant S267_03V/GpL16-k0 (antibody, human IgG1, kappa)
heavy 1: not shown
heavy 2: not shown
light: DIVMTQSPLSLPVTPGEPASISCQASESLVHSNRNTYLHWYLQKPGQSPQLLIYKVSNRFSGVPDRFSGSGSGTDFTLKISRVEAEDVGVYYCSQNTHVPPTFGQGTKVEIERTVAAPSVFIFPPSDEQLKSGTASVVCLLNNFYPREAKVQWKVDNALQSGNSQESVTEQDSKDSTYSLSSTLTLSKADYEKHKVYACEVTHQGLSSPVTKSFNRGEC
notes: also called He Ab S267_03V

These binders were tested against T1, FcγRIIa R (human, UniProt P12318 34-217) (assay: SPR Biacore; vs GpH7-B3/GpL16-k0 =100).
T1 construct: extracellular domain; also called FcgRIIa R type; 2aR
T1 sequence (looked up): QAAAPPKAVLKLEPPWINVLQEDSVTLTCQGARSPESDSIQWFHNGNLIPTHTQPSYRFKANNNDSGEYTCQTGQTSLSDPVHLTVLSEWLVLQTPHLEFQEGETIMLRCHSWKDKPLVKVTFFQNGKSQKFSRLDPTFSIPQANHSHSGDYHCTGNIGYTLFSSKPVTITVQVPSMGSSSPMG
Protocol: Analysis of interaction between objective antibody and the FcγR was carried out using Biacore T100 (GE Healthcare). HBS-EP+ (GE Healthcare) was used as the running buffer, and the measurement temperature was set to 25° C. Chips produced by immobilizing the antigen peptide by the amine coupling method to a Series S Sencor Chip CM5 (GE Healthcare), or alternatively, chips produced by allowing preliminarily biotinylated antigen peptides to interact with and immobilize onto a Series S Sensor Chip SA (certified) (GE Healthcare) were used. Antibodies of interest were captured onto an antigen peptide-immobilized chip, and allowed to interact to each FcγR diluted with running buffer. To regenerate and repeatedly use the chip, the antibodies captured on the chip were washed off by reacting 10 mM glycine-HCl, pH 1.5.
The FcγR-binding activity of each antibody was assessed primarily using as an indicator the FcγR-binding activity and dissociation constant for FcγR.

Binder | Ho/Con_2aR
B1 | 124 % of control
B2 | 80 % of control
B3 | 98.3 % of control
B4 | 92.4 % of control
B5 | 106 % of control
B6 | 101 % of control
B7 | 96.2 % of control
B8 | 120 % of control
B9 | 97.1 % of control
B10 | 99.1 % of control
B11 | 99.9 % of control
B12 | 103 % of control
B13 | 96.5 % of control
B14 | 104 % of control
B15 | 106 % of control
B16 | 36.2 % of control
B17 | 87.5 % of control

The binders below were run against T1, FcγRIIa R (assay: SPR Biacore; vs GpH7-A5/GpH7-B3/GpL16-k0 =100).

Binder | He/Con_2aR
B18 | 111 % of control
B19 | 135 % of control
B20 | 116 % of control
